Consider four substances from patent publication US20060259987A1.

Where two headings read alike, the source gives them in different places.

Common to all, as to test: cell-based or functional assay
One test has as its target factor Xa (human) (UniProt P00742).
A further test deals with thrombin (human) (UniProt P00734).
For test [1], the target named is human neutrophil cathepsin G (human) (UniProt P08311).
Test [2] addresses human neutrophil elastase (human) (UniProt P08246).

human neutrophil elastase (human), sequence (P08246 30-247 limits assumed): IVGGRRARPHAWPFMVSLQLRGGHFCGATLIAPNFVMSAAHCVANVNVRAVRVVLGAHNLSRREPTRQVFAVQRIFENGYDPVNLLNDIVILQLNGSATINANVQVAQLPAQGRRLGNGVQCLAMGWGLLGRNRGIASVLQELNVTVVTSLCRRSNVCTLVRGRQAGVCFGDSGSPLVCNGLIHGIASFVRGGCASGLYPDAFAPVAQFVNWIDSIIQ
human neutrophil cathepsin G (human), sequence (P08311 21-244 limits assumed): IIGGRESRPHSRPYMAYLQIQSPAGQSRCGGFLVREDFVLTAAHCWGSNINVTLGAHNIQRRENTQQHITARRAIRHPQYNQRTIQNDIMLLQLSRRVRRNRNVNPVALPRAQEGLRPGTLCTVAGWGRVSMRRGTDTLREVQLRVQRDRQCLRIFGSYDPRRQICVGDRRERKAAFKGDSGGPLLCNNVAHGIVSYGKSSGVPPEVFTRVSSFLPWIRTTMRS

In the test with factor Xa (human), “ATIII N135A (from UniProt P01008 33-464)” yielded an IC50 fXa/UFH; HCA #2 of 17 nM, a rsd. Xa catG; CA #8; stg1 conc 200 of 1%, a rsd. Xa catG; CA #8; stg1 conc 200 (% of no-ATIII control) of 1 and a rsd. Xa catG; CA #9; stg1 conc 200 of 1%. In the test with factor Xa (human), this substance came in with a rsd. Xa catG; CA #9; stg1 conc 200 (% of no-ATIII control) of 1, a rsd. Xa hne; CA #8; stg1 conc 200 of 90%, a rsd. Xa hne; CA #8; stg1 conc 200 (% of no-ATIII control) of 90 and a rsd. Xa hne; CA #9; stg1 conc 200 of 106%. For the same substance, in the test with factor Xa (human), the rsd. Xa hne; CA #9; stg1 conc 200 (% of no-ATIII control) amounted to 106, the rsd. Xa no add; CA #8; stg1 conc 200 turned out to be 1%, the rsd. Xa no add; CA #8; stg1 conc 200 (% of no-ATIII control) was 1 and the rsd. Xa no add; CA #9; stg1 conc 200 (% of no-ATIII control) turned out to be 2. In the test with factor Xa (human) (record 2), this substance displayed an IC50 fXa/UFH; HCA #2 of 17 nM. In addition, in the test with thrombin (human), the rsd. IIa catG; CA #8; stg1 conc 200 came to 0%, the rsd. IIa catG; CA #8; stg1 conc 200 (% of no-ATIII control) worked out at 0, the rsd. IIa catG; CA #9; stg1 conc 200 is 2% and the rsd. IIa catG; CA #9; stg1 conc 200 (% of no-ATIII control) turned out to be 2. In addition, in the test with thrombin (human), the rsd. IIa hne; CA #8; stg1 conc 200 amounted to 90%, the rsd. IIa hne; CA #8; stg1 conc 200 (% of no-ATIII control) turned out to be 90, the rsd. IIa hne; CA #9; stg1 conc 200 is 100% and the rsd. IIa hne; CA #9; stg1 conc 200 (% of no-ATIII control) stood at 100. For the same substance, in the test with thrombin (human), the rsd. IIa no add; CA #8; stg1 conc 200 stood at 1%, the rsd. IIa no add; CA #8; stg1 conc 200 (% of no-ATIII control) worked out at 1, the rsd. IIa no add; CA #9; stg1 conc 200 stood at 2% and the rsd. IIa no add; CA #9; stg1 conc 200 (% of no-ATIII control) was 2.
In the case of “ATIII S137A (from UniProt P01008 33-464)”, in the test with factor Xa (human), the IC50 fXa/UFH; HCA #4 worked out at 12 nM, the rsd. Xa catG; CA #6; stg1 conc 200 (% of no-ATIII control) was 0, the rsd. Xa catG; CA #13; stg1 conc 200 (% of no-ATIII control) came out at 1 and the rsd. Xa hne; CA #6; stg1 conc 200 (% of no-ATIII control) was determined as 81. In the test with factor Xa (human), the rsd. Xa hne; CA #13; stg1 conc 200 (% of no-ATIII control) was 87, the rsd. Xa no add; CA #6; stg1 conc 200 (% of no-ATIII control) amounted to 0 and the rsd. Xa no add; CA #13; stg1 conc 200 (% of no-ATIII control) worked out at 2. Also, in the test with thrombin (human), the IC50 IIa/UFH; HCA #4 is 13 nM, the rsd. IIa catG; CA #6; stg1 conc 200 (% of no-ATIII control) worked out at 0, the rsd. IIa catG; CA #13; stg1 conc 200 (% of no-ATIII control) was 1 and the rsd. IIa hne; CA #6; stg1 conc 200 (% of no-ATIII control) was 81. In the test with thrombin (human), this substance showed a rsd. IIa hne; CA #13; stg1 conc 200 (% of no-ATIII control) of 89, a rsd. IIa no add; CA #6; stg1 conc 200 (% of no-ATIII control) of 0 and a rsd. IIa no add; CA #13; stg1 conc 200 (% of no-ATIII control) of 4.
In the test with factor Xa (human), “human plasma-derived ATIII (from UniProt P01008 33-464)” gave an IC50 fXa/UFH; HCA #4 of 13 nM, a rsd. Xa catG; CA #12; stg1 conc 200 (% of no-ATIII control) of 1, a rsd. Xa catG; CA #17; stg1 conc 3 (% of no-ATIII control) of 77 and a rsd. Xa catG; CA #17; stg1 conc 7 (% of no-ATIII control) of 12. In the test with factor Xa (human), this substance showed a rsd. Xa catG; CA #17; stg1 conc 23 (% of no-ATIII control) of -7, a rsd. Xa hne; CA #14; stg1 conc 200 (% of no-ATIII control) of 101, a rsd. Xa hne; CA #17; stg1 conc 23 (% of no-ATIII control) of 98 and a rsd. Xa no add; CA #17; stg1 conc 1 (% of no-ATIII control) of 90. In the test with factor Xa (human), the rsd. Xa no add; CA #17; stg1 conc 3 (% of no-ATIII control) was determined as 75 and the rsd. Xa no add; CA #17; stg1 conc 23 (% of no-ATIII control) came out at 1.
Turning to “plasma-derived ATIII (from UniProt P01008 33-464)”, in the test with factor Xa (human), the IC50 fXa/UFH; HCA #4 worked out at 13 nM, the rsd. Xa catG; CA #12; stg1 conc 200 is 1%, the rsd. Xa catG; CA #17; stg1 conc 3 was 77% and the rsd. Xa catG; CA #17; stg1 conc 7 was 12%. Besides, in the test with factor Xa (human), the rsd. Xa catG; CA #17; stg1 conc 23 is -7%, the rsd. Xa hne; CA #14; stg1 conc 200 worked out at 101%, the rsd. Xa hne; CA #17; stg1 conc 23 was 98% and the rsd. Xa no add; CA #17; stg1 conc 1 was determined as 90%. In the test with factor Xa (human), this substance registered a rsd. Xa no add; CA #17; stg1 conc 3 of 75% and a rsd. Xa no add; CA #17; stg1 conc 23 of 1%. For the same substance, the IC50 fXa/UFH; HCA #4 in the test with factor Xa (human) (record 2) came out at 13 nM. In test [1], the rsd IIa, catG (CA #14, stg 1 conc 200) came out at 1%. In test [2], this substance registered a halflife, min (HNE/hep) of 2.9 min; a rsd IIa, HNE (CA #14, stg 1 conc 200) of 100%; a rsd Xa, HNE (CA #14, stg 1 conc 200) of 101%.
